{"source": "patent US20040258688A1", "biological_target": "murine DEC-205 (mouse) (UniProt Q60767)", "sequence (Q60767 28-1723 S1283P limits assumed)": "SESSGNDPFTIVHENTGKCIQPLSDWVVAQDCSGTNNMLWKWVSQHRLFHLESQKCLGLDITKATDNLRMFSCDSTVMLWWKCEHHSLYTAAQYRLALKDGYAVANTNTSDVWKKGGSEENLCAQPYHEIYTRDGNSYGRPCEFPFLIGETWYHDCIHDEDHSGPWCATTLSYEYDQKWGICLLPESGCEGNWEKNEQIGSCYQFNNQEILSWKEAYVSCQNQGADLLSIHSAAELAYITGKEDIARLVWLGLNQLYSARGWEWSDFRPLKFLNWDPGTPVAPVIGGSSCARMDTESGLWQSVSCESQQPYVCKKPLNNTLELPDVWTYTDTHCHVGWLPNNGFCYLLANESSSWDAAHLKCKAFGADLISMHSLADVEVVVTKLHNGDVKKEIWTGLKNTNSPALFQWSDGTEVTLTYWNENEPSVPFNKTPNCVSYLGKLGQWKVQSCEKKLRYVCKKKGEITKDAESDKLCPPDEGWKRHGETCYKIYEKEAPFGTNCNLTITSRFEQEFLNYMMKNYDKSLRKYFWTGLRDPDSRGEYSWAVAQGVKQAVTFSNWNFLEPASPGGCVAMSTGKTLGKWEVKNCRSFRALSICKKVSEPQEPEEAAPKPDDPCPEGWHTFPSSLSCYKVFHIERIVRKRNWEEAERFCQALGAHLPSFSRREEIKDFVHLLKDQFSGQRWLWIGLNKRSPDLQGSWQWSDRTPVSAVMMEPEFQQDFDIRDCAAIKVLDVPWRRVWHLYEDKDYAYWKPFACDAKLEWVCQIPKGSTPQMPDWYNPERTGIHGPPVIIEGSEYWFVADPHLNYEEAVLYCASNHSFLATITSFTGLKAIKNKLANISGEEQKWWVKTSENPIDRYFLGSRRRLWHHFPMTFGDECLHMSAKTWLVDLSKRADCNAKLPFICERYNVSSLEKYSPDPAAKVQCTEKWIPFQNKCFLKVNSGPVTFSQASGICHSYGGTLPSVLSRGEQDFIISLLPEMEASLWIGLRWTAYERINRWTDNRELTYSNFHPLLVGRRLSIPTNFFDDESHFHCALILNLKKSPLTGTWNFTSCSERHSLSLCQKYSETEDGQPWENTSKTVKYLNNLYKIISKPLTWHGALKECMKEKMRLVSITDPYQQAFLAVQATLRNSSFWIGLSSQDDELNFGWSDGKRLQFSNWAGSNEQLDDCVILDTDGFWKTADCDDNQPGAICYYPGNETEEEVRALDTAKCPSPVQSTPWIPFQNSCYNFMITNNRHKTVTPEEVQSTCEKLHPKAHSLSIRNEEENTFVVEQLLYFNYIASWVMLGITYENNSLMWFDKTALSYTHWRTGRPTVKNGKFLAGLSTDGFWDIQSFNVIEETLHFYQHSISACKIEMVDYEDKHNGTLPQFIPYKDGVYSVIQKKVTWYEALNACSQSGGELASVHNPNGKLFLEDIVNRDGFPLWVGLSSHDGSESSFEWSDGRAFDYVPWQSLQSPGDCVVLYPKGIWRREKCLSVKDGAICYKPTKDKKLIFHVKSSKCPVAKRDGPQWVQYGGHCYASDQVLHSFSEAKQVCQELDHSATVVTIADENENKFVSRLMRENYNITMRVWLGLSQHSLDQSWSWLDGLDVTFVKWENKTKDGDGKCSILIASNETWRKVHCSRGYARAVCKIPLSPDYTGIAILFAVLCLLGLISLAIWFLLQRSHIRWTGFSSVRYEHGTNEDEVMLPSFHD", "experiment": "Alexa488-conjugated antibody (10 µg) injected s.c.; flow cytometry of CD11c+ cells", "data": [{"substance": "NLDC-145 monoclonal antibody to DEC-205", "values": [{"measurement": "percent of distal lymph node DCs loaded with injected antibody at 6 hrs", "value": 40, "unit": "%"}, {"measurement": "percent of draining lymph node DCs loaded with injected antibody at 6 hrs", "value": "> 50", "unit": "%"}, {"measurement": "percent of spleen DCs loaded with injected antibody at 6 hrs", "value": 30, "unit": "%"}]}]}
